Molecular target: T1, Ron (Sema IPT1)-IgG fusion protein (human, UniProt Q04912 25-683, limits assumed)
T1 construct: domain: Sema IPT1; Captured on the chip or plate through an anti-human IgG (Fc specific) antibody; also called Ron-Fc; human Ron; not shown: IgG (Fc) portion, captured by rabbit anti-human IgG Fc antibody
T1 sequence (looked up): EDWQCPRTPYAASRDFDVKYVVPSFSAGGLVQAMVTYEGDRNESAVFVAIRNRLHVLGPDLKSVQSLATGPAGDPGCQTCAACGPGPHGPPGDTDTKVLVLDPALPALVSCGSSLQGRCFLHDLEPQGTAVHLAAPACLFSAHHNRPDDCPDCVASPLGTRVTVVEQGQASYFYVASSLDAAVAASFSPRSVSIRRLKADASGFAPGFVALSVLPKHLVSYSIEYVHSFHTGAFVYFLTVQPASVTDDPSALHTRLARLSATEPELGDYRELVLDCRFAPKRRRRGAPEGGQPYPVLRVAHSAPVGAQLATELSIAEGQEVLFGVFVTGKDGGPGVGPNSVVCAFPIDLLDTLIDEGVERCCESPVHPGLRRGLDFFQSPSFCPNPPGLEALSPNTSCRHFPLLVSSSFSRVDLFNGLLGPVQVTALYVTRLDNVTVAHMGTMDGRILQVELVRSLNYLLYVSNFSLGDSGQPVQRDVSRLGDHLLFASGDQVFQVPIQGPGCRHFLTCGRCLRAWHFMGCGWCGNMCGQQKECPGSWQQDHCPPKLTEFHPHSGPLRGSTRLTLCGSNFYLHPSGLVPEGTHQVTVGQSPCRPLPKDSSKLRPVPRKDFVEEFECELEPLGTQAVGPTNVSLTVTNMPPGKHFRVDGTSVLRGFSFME
Assay: ELISA, Ron (Sema IPT1)-IgG captured on an anti-human IgG Fc coated plate, His tagged MSP detected with anti-His-HRP, four parameter fit; ELISA, not SPR; printed only as 'MSP'
Protocol: To determine binding affinity of hepsin-activated MSP to human Ron, surface plasmon resonance measurements on a BIAcore™-3000 instrument (GE Health Care, NJ) were performed. Rabbit anti-human IgG were chemically immobilized (amine coupling) on CM5 biosensor chips and the Ron (Sema IPT1)-IgG fusion protein was captured to give approximately 250 response units (RU). For kinetics measurements, different concentration of either hepsin-activated MSP or a commercially available MSP (R&D systems) were injected in HBS-P buffer at 25° C. with a flow rate of 30 μl/min. Association rates (kₒₙ) and dissociation rates (koff) were obtained by using a simple one-to-one Langmuir binding model (BIA-Evaluation) and the equilibrium dissociation constants (KD) were calculated (koff/kₒₙ). […] Bound MSP was detected using anti-His-HRP (Qiagen, Valencia, Calif.) followed by addition of TMB/H₂O₂ substrate (KPL, Gaithersburg, Md.). The reaction was stopped with 1M H₃PO₄ and the A₄₅₀ was measured on a Molecular Devices (Sunnyvale, Calif.) SpectraMax Plus³⁸⁴ microplate reader. The effective concentration to give half-maximal binding (EC₅₀) was determined by a four parameter fit using Kaleidagraph (Synergy Software, Reading, Pa.). […]

B1: hepsin-activated MSP (recombinant human macrophage-stimulating protein, C672A, cleaved by hepsin at Arg483-Val484) (ligand)
chain 1: QRSPLNDFQVLRGTELQHLLHAVVPGPWQEDVADAEECAGRCGPLMDCRAFHYNVSSHGCQLLPWTQHSPHTRLRRSGRCDLFQKKDYVRTCIMNNGVGYRGTMATTVGGLPCQAWSHKFPNDHKYTPTLRNGLEENFCRNPDGDPGGPWCYTTDPAVRFQSCGIKSCREAACVWCNGEEYRGAVDRTESGRECQRWDLQHPHQHPFEPGKFLDQGLDDNYCRNPDGSERPWCYTTDPQIEREFCDLPRCGSEAQPRQEATTVSCFRGKGEGYRGTANTTTAGVPCQRWDAQIPHQHRFTPEKYACKDLRENFCRNPDGSEAPWCFTLRPGMRAAFCYQIRRCTDDVRPQDCYHGAGEQYRGTVSKTRKGVQCQRWSAETPHKPQFTFTSEPHAQLEENFCRNPDGDSHGPWCYTMDPRTPFDYCALRRCADDQPPSILDPPDQVQFEKCGKRVDRLDQRRSKLR
chain 2: VVGGHPGNSPWTVSLRNRQGQHFCGGSLVKEQWILTARQCFSSCHMPLTGYEVWLGTLFQNPQHGEPSLQRVPVAKMVCGPSGSQLVLLKLERSVTLNQRVALICLPPEWYVVPPGTKCEIAGWGETKGTGNDTVLNVALLNVISNQECNIKHRGRVRESEMCTEGLLAPVGACEGDYGGPLACFTHNAWVLEGIIIPNRVCARSRWPAVFTRVSVFVDWIHKVMRLG
notes: Made by treating recombinant pro-MSP (C672A, from CHO cells) with the recombinant hepsin extracellular domain; It is a disulfide-linked α/β heterodimer; also called hepsin-treated pro-MSP
With B1 the EC50 was 0.519 nM.

— patent US20120282271A1 (Genentech, published 2012)
